Assay results as given in EP0656117B1.

What was measured:
[1] = target: interleukin 6 receptor gp 80 (soluble Human Recombinant IL-6R) (human) (UniProt P08887); experiment: receptor binding assay, format not described
[2] = target: interleukin 6 receptor gp 80 (soluble Human Recombinant IL-6R) (human) (UniProt P08887); experiment: recovery of particles from balls coated with receptor, elution pH 3.6
[3] = target: interleukin 6 receptor gp 80 (soluble Human Recombinant IL-6R) (human) (UniProt P08887); experiment: cell-based or functional assay
[4] = target: interleukin 6 receptor gp 80 (soluble Human Recombinant IL-6R) (human) (UniProt P08887); experiment: receptor binding assay, format not described; protein from bacterial periplasm
[5] = target: interleukin 6 receptor gp 80 (soluble Human Recombinant IL-6R) (human) (UniProt P08887); experiment: panning of a 1:100 mixture with M13K07 on polystyrene balls coated with shrIL-6R, elution pH 3.6 (eluate 1:10)
[6] = target: interleukin 6 receptor gp 80 (soluble Human Recombinant IL-6R) (human) (UniProt P08887); experiment: panning of a 1:1 mixture of 176 Arg and 179 Ala phasmids on receptor in solid phase, elution pH 3.6

Sequence of UniProt P08887 (P08887 20-355 limits assumed): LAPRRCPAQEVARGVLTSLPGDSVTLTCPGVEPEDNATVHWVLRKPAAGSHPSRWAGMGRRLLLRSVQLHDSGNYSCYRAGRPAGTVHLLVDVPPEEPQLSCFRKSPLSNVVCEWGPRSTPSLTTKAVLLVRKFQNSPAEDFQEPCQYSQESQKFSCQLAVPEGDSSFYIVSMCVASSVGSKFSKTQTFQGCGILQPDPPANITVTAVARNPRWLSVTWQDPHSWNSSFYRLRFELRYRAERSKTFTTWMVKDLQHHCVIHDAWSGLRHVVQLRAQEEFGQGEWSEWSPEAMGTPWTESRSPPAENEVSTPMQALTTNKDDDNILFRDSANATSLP

interleukin 6 helix C mutant 118 Arg / 121 Val (from UniProt P05231 29-212) (ligand)
Receptor binding (% of wild type) [1]: 81%

M13K07 helper bacteriophage particles
particles recovered relative to phasmid hIL-6 [2]: 0.18 relative

IL-6 Tyr31Asp/Gly35Phe/Ser118Leu/Val121Asp (from UniProt P05231 29-212) (ligand)
Inhibition of wild type interleukin 6 activity (growth of XG-1 human myeloma cells, wild type IL-6 0.1 ng/ml) at antagonist 3.3 ng/ml [3]: 0%
Inhibition of wild type interleukin 6 activity (growth of XG-1 human myeloma cells, wild type IL-6 0.1 ng/ml) at antagonist 10 ng/ml [3]: 3%
Inhibition of wild type interleukin 6 activity (growth of XG-1 human myeloma cells, wild type IL-6 0.1 ng/ml) at antagonist 30 ng/ml [3]: 10%
Inhibition of wild type interleukin 6 activity (growth of XG-1 human myeloma cells, wild type IL-6 0.1 ng/ml) at antagonist 90 ng/ml [3]: 31%
Inhibition of wild type interleukin 6 activity (growth of XG-1 human myeloma cells, wild type IL-6 0.1 ng/ml) at antagonist 270 ng/ml [3]: 53%
Inhibition of wild type interleukin 6 activity (growth of XG-1 human myeloma cells, wild type IL-6 0.1 ng/ml) at antagonist 810 ng/ml [3]: 71%
Inhibition of wild type interleukin 6 activity (growth of XG-1 human myeloma cells, wild type IL-6 0.1 ng/ml) at antagonist 2430 ng/ml [3]: 76%
Inhibition of wild type interleukin 6 activity (growth of XG-1 human myeloma cells, wild type IL-6 0.1 ng/ml) at antagonist 7290 ng/ml [3]: 81%
Receptor binding (% of wild type) [1]: 63%

interleukin 6 mutant Gln175Ile/Ser176Arg/Gln183Ala (from UniProt P05231 29-212) (ligand)
Receptor binding (%) [4]: 450%

interleukin 6 helix D mutant of phage 5-4 (183 Tyr) (from UniProt P05231 29-212) (ligand)
Receptor binding (%) [4]: 240%

interleukin 6 helix D mutant of phage 5-3 (175 Ile, 181 Val, 183 His) (from UniProt P05231 29-212) (ligand)
Receptor binding (%) [4]: 80%

179 Ala phasmid (hIL-6 mutant 179 Ala shown on phasmid) (from UniProt P05231 29-212)
particles recovered relative to phasmid hIL-6 [2]: 0.2 relative

IL-6 Ser118Arg/Val121Asp (from UniProt P05231 29-212) (ligand)
Receptor binding (% of wild type) [1]: 66%

hIL-6 phasmid (phage particle with hIL6-pIII fusion molecules) (from UniProt P05231 30-212)
enrichment with respect to M13K07 [5]: 10 fold
particles recovered relative to phasmid hIL-6 [2]: 1 relative

IL-6 Tyr31Asp/Gly35Phe/Ser118Arg/Val121Asp (from UniProt P05231 29-212) (ligand)
50% inhibition of interleukin 6 activity on hepatoma cells Hep3B (wild type IL-6 4 ng/ml) [3]: 164 ng/mL
50% inhibition of interleukin 6 activity on hepatoma cells HepG2 (wild type IL-6 4 ng/ml) [3]: 132 ng/mL
50% inhibition of interleukin 6 activity on myeloma cells XG-1 (wild type IL-6 0.1 ng/ml) [3]: 190 ng/mL
Inhibition of wild IL-6 (%) on human hepatoma cells (wild IL-6 4 ng/ml) at antagonist 16 ng/ml (4 X molar excess, 0.7 nM) [3]: 23%
Inhibition of wild IL-6 (%) on human hepatoma cells (wild IL-6 4 ng/ml) at antagonist 60 ng/ml (15 X molar excess, 2.7 nM) [3]: 28%
Inhibition of wild IL-6 (%) on human hepatoma cells (wild IL-6 4 ng/ml) at antagonist 164 ng/ml (41 X molar excess, 7.5 nM) [3]: 50%
Inhibition of wild IL-6 (%) on human hepatoma cells (wild IL-6 4 ng/ml) at antagonist 500 ng/ml (125 X molar excess, 22.7 nM) [3]: 75%
Inhibition of wild IL-6 (%) on human hepatoma cells (wild IL-6 4 ng/ml) at antagonist 1000 ng/ml (250 X molar excess, 45.5 nM) [3]: 82%
Inhibition of wild IL-6 (%) on human hepatoma cells (wild IL-6 4 ng/ml) at antagonist 2000 ng/ml (500 X molar excess, 90.0 nM) [3]: 90%
Inhibition of wild IL-6 (%) on human hepatoma cells (wild IL-6 4 ng/ml) at antagonist 4000 ng/ml (1000 X molar excess, 181.8 nM) [3]: 96%
Inhibition of wild type interleukin 6 activity (growth of XG-1 human myeloma cells, wild type IL-6 0.1 ng/ml) at antagonist 3.3 ng/ml [3]: 6%
Inhibition of wild type interleukin 6 activity (growth of XG-1 human myeloma cells, wild type IL-6 0.1 ng/ml) at antagonist 10 ng/ml [3]: 12%
Inhibition of wild type interleukin 6 activity (growth of XG-1 human myeloma cells, wild type IL-6 0.1 ng/ml) at antagonist 30 ng/ml [3]: 25%
Inhibition of wild type interleukin 6 activity (growth of XG-1 human myeloma cells, wild type IL-6 0.1 ng/ml) at antagonist 90 ng/ml [3]: 42%
Inhibition of wild type interleukin 6 activity (growth of XG-1 human myeloma cells, wild type IL-6 0.1 ng/ml) at antagonist 270 ng/ml [3]: 64%
Inhibition of wild type interleukin 6 activity (growth of XG-1 human myeloma cells, wild type IL-6 0.1 ng/ml) at antagonist 810 ng/ml [3]: 84%
Inhibition of wild type interleukin 6 activity (growth of XG-1 human myeloma cells, wild type IL-6 0.1 ng/ml) at antagonist 2430 ng/ml [3]: 90%
Inhibition of wild type interleukin 6 activity (growth of XG-1 human myeloma cells, wild type IL-6 0.1 ng/ml) at antagonist 7290 ng/ml [3]: 93%
Receptor binding (% of wild type) [1]: 97%
Receptor binding (% of wt) [1]: 97%

interleukin 6 helix D mutant of phage 5-8 (183 Ala) (from UniProt P05231 29-212) (ligand)
Receptor binding (%) [4]: 240%

interleukin 6 helix C mutant 118 Leu / 121 Asp (from UniProt P05231 29-212) (ligand)
Receptor binding (% of wild type) [1]: 92%

wild type human interleukin 6 (from UniProt P05231 30-212) (ligand)
Receptor binding (%) [4]: 100%
Receptor binding (% of wild type) [1]: 100%

IL-6 Tyr31Asp/Gly35Phe/Ser118Phe/Val121Asp (from UniProt P05231 29-212) (ligand)
Inhibition of wild type interleukin 6 activity (growth of XG-1 human myeloma cells, wild type IL-6 0.1 ng/ml) at antagonist 3.3 ng/ml [3]: 0%
Inhibition of wild type interleukin 6 activity (growth of XG-1 human myeloma cells, wild type IL-6 0.1 ng/ml) at antagonist 10 ng/ml [3]: 7%
Inhibition of wild type interleukin 6 activity (growth of XG-1 human myeloma cells, wild type IL-6 0.1 ng/ml) at antagonist 30 ng/ml [3]: 18%
Inhibition of wild type interleukin 6 activity (growth of XG-1 human myeloma cells, wild type IL-6 0.1 ng/ml) at antagonist 90 ng/ml [3]: 35%
Inhibition of wild type interleukin 6 activity (growth of XG-1 human myeloma cells, wild type IL-6 0.1 ng/ml) at antagonist 270 ng/ml [3]: 59%
Inhibition of wild type interleukin 6 activity (growth of XG-1 human myeloma cells, wild type IL-6 0.1 ng/ml) at antagonist 810 ng/ml [3]: 84%
Inhibition of wild type interleukin 6 activity (growth of XG-1 human myeloma cells, wild type IL-6 0.1 ng/ml) at antagonist 2430 ng/ml [3]: 90%
Inhibition of wild type interleukin 6 activity (growth of XG-1 human myeloma cells, wild type IL-6 0.1 ng/ml) at antagonist 7290 ng/ml [3]: 95%
Receptor binding (% of wild type) [1]: 76%

interleukin 6 helix A and C mutant 31 Asp / 35 Phe / 118 Arg / 121 Val (from UniProt P05231 29-212) (ligand)
Receptor binding (% of wild type) [1]: 66%

176 Arg phasmid (hIL-6 mutant 176 Arg shown on phasmid) (from UniProt P05231 30-212)
ratio of particles in the eluate against 179 Ala phasmid [6]: 15 ratio (to 1)
particles recovered relative to phasmid hIL-6 [2]: 3 relative

interleukin 6 mutant Gln175Ile/Gln183Ala (phage 5-2) (from UniProt P05231 29-212) (ligand)
Receptor binding (%) [4]: 260%

SAnt 1 (interleukin 6 Tyr31Asp/Gly35Phe/Ser118Arg/Val121Asp/Gln175Ile/Ser176Arg/Gln183Ala) (from UniProt P05231 29-212) (ligand)
50% inhibition of interleukin 6 activity on hepatoma cells Hep3B (wild type IL-6 4 ng/ml) [3]: 19 ng/mL
50% inhibition of interleukin 6 activity on hepatoma cells HepG2 (wild type IL-6 4 ng/ml) [3]: 32 ng/mL
50% inhibition of interleukin 6 activity on myeloma cells XG-1 (wild type IL-6 0.1 ng/ml) [3]: 22 ng/mL
Receptor binding (% of wt) [1]: 406%

interleukin 6 helix C mutant 118 Ser / 121 Asp (from UniProt P05231 29-212) (ligand)
Receptor binding (% of wild type) [1]: 78%

interleukin 6 helix D mutant of phage 4-8 (181 Ile, 183 Asn) (from UniProt P05231 29-212) (ligand)
Receptor binding (%) [4]: 100%
